The chains are these.
T1: EsCas13d, nuclease-dead (Eubacterium siraeum, UniProt B0MS50, R295A;H300A;R849A;H854A)
T1 sequence: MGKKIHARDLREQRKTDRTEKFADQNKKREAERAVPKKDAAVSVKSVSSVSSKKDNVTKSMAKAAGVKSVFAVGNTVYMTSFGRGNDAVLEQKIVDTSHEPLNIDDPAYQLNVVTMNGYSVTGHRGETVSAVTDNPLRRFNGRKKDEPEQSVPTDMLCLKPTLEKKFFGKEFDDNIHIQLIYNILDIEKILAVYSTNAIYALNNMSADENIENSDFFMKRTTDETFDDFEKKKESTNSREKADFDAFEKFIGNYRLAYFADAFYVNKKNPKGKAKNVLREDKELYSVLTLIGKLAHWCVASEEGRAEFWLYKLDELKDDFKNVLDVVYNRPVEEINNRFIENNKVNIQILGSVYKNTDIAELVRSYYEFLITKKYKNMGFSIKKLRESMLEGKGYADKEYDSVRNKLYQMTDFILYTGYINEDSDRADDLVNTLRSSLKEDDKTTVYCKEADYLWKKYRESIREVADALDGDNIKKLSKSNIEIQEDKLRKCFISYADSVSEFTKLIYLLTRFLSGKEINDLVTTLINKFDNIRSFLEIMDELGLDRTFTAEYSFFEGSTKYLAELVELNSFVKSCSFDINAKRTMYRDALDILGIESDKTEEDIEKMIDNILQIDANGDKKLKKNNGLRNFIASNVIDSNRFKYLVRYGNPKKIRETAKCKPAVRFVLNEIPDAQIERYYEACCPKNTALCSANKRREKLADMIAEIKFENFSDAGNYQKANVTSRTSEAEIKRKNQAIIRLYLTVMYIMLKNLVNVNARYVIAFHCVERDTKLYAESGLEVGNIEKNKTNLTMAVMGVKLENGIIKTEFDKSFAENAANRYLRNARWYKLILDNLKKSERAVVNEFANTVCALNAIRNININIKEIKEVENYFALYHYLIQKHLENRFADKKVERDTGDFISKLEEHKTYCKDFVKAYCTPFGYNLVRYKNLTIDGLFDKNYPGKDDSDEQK

B1: target 3 U2G,U7C (mixed)
RNA 1: CACCCGUGCAAAAUUGCAGGGGUCUAAAACGACCUGAAUAUUUCAGAUCAAA
RNA 2: GGGAAUGGAUCCACAUCUACGAAUUCGUUUUUGAUCUGAAAUAUCCAGGGCUGCAGAUCGGAAGAGCACACGU
B2: target 3 insG 3' of 22,insG 3' of 5 (mixed)
RNA 1: B1 RNA 1
RNA 2: GGGAAUGGAUCCACAUCUACGAAUUCGUUUGUUGAUCUGAAAUAUUCAGGGUCUGCAGAUCGGAAGAGCACACGU
B3: target 3 complement block 5-9 (mixed)
RNA 1: B1 RNA 1
RNA 2: B1 RNA 2 with A43U, U44A, C45A, C46G, A47U, G50U
B4: target 3 insG 3' of 8,insU 3' of 5 (mixed)
RNA 1: B1 RNA 1
RNA 2: GGGAAUGGAUCCACAUCUACGAAUUCGUUUUUGAUCUGAAAUAUGUCAUGGUCUGCAGAUCGGAAGAGCACACGU
B5: target 3 insA 3' of 8 (mixed)
RNA 1: B1 RNA 1
RNA 2: GGGAAUGGAUCCACAUCUACGAAUUCGUUUUUGAUCUGAAAUAUAUCAGGUCUGCAGAUCGGAAGAGCACACGU
B6: target 3 U2G,A5C (mixed)
RNA 1: B1 RNA 1
RNA 2: B1 RNA 2 with C45U, A47C
B7: target 3 insA 3' of 6,insG 3' of 6 (mixed)
RNA 1: B1 RNA 1
RNA 2: B4 RNA 2 with G45U, U46C, C47A, A48G, U49A
B8: target 3 G4A,U7C (mixed)
RNA 1: B1 RNA 1
RNA 2: B1 RNA 2 with G48A, G50U
B9: target 3 A11C,G14U (mixed)
RNA 1: B1 RNA 1
RNA 2: B1 RNA 2 with G38U, A41C, C45U, G50U
B10: target 3 insG 3' of 7,insC 3' of 3 (mixed)
RNA 1: B1 RNA 1
RNA 2: B4 RNA 2 with G45U, U46G, U49G, G51C
B11: target 3 U2A,U8A (mixed)
RNA 1: B1 RNA 1
RNA 2: B1 RNA 2 with U44A, C45U, G50A
B12: target 3 insU 3' of 11 (mixed)
RNA 1: B1 RNA 1
RNA 2: B5 RNA 2 with A43U, U44A, A45U
B13: target 3 insC 3' of 3,insA 3' of 2 (mixed)
RNA 1: B1 RNA 1
RNA 2: B4 RNA 2 with G45U, U46C, C47A, A48G, U49G, G50C, G51U, U52A
B14: target 3 A13G,A18G (mixed)
RNA 1: B1 RNA 1
RNA 2: B1 RNA 2 with A34G, A39G, C45U, G50U
B15: target 3 insA 3' of 7,insA 3' of 3 (mixed)
RNA 1: B1 RNA 1
RNA 2: B4 RNA 2 with G45U, U46A, U49G, G51A
B16: target 3 insG 3' of 5,insC 3' of 3 (mixed)
RNA 1: B1 RNA 1
RNA 2: B4 RNA 2 with G45U, U46C, C47A, A48G, U49G, G51C
B17: target 3 A5C,C6G (mixed)
RNA 1: B1 RNA 1
RNA 2: B1 RNA 2 with C45U, C46G, A47C, G50U
B18: target 3 G3U,U22G (mixed)
RNA 1: B1 RNA 1
RNA 2: B1 RNA 2 with U30G, C45U, G49U, G50U
B19: target 3 insU 3' of 22,insA 3' of 22 (mixed)
RNA 1: B1 RNA 1
RNA 2: GGGAAUGGAUCCACAUCUACGAAUUCGUUUUAUUGAUCUGAAAUAUUCAGGUCUGCAGAUCGGAAGAGCACACGU
B20: target 3 insG 3' of 8,insC 3' of 4 (mixed)
RNA 1: B1 RNA 1
RNA 2: B4 RNA 2 with U49G, G50C
B21: target 3 U2C,U22A (mixed)
RNA 1: B1 RNA 1
RNA 2: B1 RNA 2 with U30A, C45U, G50C
B22: target 3 insC 3' of 11,insA 3' of 2 (mixed)
RNA 1: B1 RNA 1
RNA 2: B4 RNA 2 with U42C, A43U, U44A, G45U, U49G, G51U, U52A
B23: target 3 U2A,U21A (mixed)
RNA 1: B1 RNA 1
RNA 2: B1 RNA 2 with U31A, C45U, G50A
B24: target 3 insU 3' of 22,insC 3' of 4 (mixed)
RNA 1: B1 RNA 1
RNA 2: B2 RNA 2 with G31U, G50C
B25: target 3 G3U,U7G (mixed)
RNA 1: B1 RNA 1
RNA 2: B1 RNA 2 with C45G, G49U, G50U
B26: target 3 insG 3' of 5,insU 3' of 4 (mixed)
RNA 1: B1 RNA 1
RNA 2: B4 RNA 2 with G45U, U46C, C47A, A48G, U49G, G50U
B27: target 3 G4U,U8C (mixed)
RNA 1: B1 RNA 1
RNA 2: B1 RNA 2 with U44C, C45U, G48U, G50U
B28: target 1 U11G,A14G (mixed)
RNA 1: CACCCGUGCAAAAAUGCAGGGGUCUAAAACUGAGCGGAUAACCUCUCUAUGG
RNA 2: GGGAAUGGAUCCACAUCUACGAAUUCGUACCAUAGAGGGGGUAUCCGCUCACCGAGAUCGGAAGAGCACACGU
B29: target 1 U3A,C6U (mixed)
RNA 1: B28 RNA 1
RNA 2: B28 RNA 2 with G38A, G41U, C46U, U49A
B30: target 1 insC 3' of 8,insU 3' of 7 (mixed)
RNA 1: B28 RNA 1
RNA 2: GGGAAUGGAUCCACAUCUACGAAUUCGUACCAUAGAGAGGUUAUCCUCGCUCACCGAGAUCGGAAGAGCACACGU
B31: target 1 insG 3' of 21,insC 3' of 1 (mixed)
RNA 1: B28 RNA 1
RNA 2: GGGAAUGGAUCCACAUCUACGAAUUCGUACCGAUAGAGAGGUUAUCCGCUCACCCGAGAUCGGAAGAGCACACGU

From PMC10786891, “Massively parallel profiling of RNA-targeting CRISPR-Cas13d” come the findings set out here.

Numbering of substitutions follows the chain as printed. Names and notes keep the numbering of the source.

The data set has as its target T1, EsCas13d, nuclease-dead. Put plainly: crRNA (strand 1, pre-loaded); Mg2+; 40 mM Tris-HCl pH 7.5, 150 mM NaCl, 6 mM MgCl2, 1 mM DTT, 0.1% Tween-20, 0.2 mg/ml BSA; 25 C; 10 min per concentration, then washed. Particulars: tags: His6-TwinStrep-SUMO cleaved; N-terminal SNAP kept (SNAP-Surface 488); label: 3' end held by stalled T7 RNA polymerase.
The Kd is a measure of binding affinity in units of concentration. High values mean weaker binding, low ones tighter binding. Regarding B1, the Kd amounted to 28 ± 4.5 nM. Turning to B2, the Kd was 41.5 ± 18 nM.

B3 registered a Kd of 90 ± 9.5 nM. For the molecule B4, the Kd stood at 31.7 ± 2.8 nM. B5 gave a Kd of 50.5 ± 10 nM. With B6 the figure was 120 ± 32.5 nM; with B7, 41 ± 4.5 nM; with B8, 71 ± 12.5 nM. With B9 the figure was 56.5 ± 27 nM; with B10, 46 ± 5 nM. In the case of B11 it was 39 ± 6 nM. Take B12: binding was characterised by a dissociation constant (Kd) of 81 ± 31 nM. In the case of B13 it was 18.6 ± 2.2 nM; in that of B14, ~100 nM. In the case of B15, the Kd was found to be 37 ± 4.5 nM. B16 showed a Kd of 76 ± 12.5 nM.

B17: the Kd is 53.5 ± 5.5 nM. With B18 the figure was 94 ± 21.5 nM; with B19, 13.4 ± 1.35 nM; with B20, 38.5 ± 8 nM.

In the case of B21, the Kd was 77.5 ± 14 nM. Molecule B22 had a Kd of 45.5 ± 11.5 nM. In the case of B23 it was 39.5 ± 6 nM.

In turn, B24 showed a Kd of 19.5 ± 4.5 nM.

In turn, B25 yielded a Kd of 33.1 ± 4.2 nM. Molecule B26 displayed a Kd of 20.4 ± 1.8 nM. Molecule B27 showed a dissociation constant (Kd) of 39 ± 5 nM. In the case of B28 it was 22.1 ± 1.3 nM; in that of B29, 5.27 ± 0.27 nM. With B30 the figure was 13.6 ± 1.1 nM. In the case of B31 it was 69 ± 12 nM.
